Consider eight molecules from US20250043022A1 (JIANGSU HENGRUI PHARMACEUTICALS, published 2025).

Test [1] addresses T1, human PSMA on cells (Cho-hPSMA, CHO-K1 cells overexpressing full-length human PSMA) (human, UniProt Q04609 1-750). The test is described as follows: cell-based or functional assay.
Test [2] concerns the target T1, human PSMA on cells (Cho-hPSMA, CHO-K1 …). The test is described as follows: cell ELISA, Cho-hPSMA; antibody at 25 nM. The protocol:
(§1) Experiment 2: Cells were cultured and inoculated onto a cell plate using the same method as in Experiment 1. The antibodies were serially diluted, and the antibody solutions were added to the cell plate at 100 μL/well. The plate was incubated at 4° C. for 1 h and then washed. An HRP-Goat Anti-human IgG (H+L) secondary antibody dilution (1:8000) was added to the cell plate at 100 μL/well, and the plate was incubated at 4° C. for 1 h and then washed by centrifugation. After color development with TMB, the reaction was stopped with 0.1 M sulfuric acid, and OD450 values were measured.
(§2) Experiment 4: The binding activity of bispecific antibodies was measured using the method of experiment 2.

Test [3] has the same target. The test is described as follows: cell ELISA, Cho-hPSMA; antibody at 1.5625 nM. As for the experimental part: as §1, §2
Test [4] shares this target. The test is described as follows: cell ELISA, Cho-hPSMA; antibody at 6.25 nM. As for the experimental part: as §1, §2
The target is the same in test [5]. The test is described as follows: flow cytometry, Cho-hPSMA; antibody at 100 nM. The protocol:
(§3) Experiment 1: Cho-hPSMA was cultured in F12 medium with 10% FBS. The medium to which cells were inoculated was incubated in a 37° C., 5% CO₂ incubator for 2 days, and cells were added to a cell plate at 1×10⁵ cells/well and washed by centrifugation. Antibodies were serially diluted, and the antibody solutions were added to the cell plate at 100 μL/well. The plate was incubated at 4° C. for 1 h and then washed. An AF488-Goat Anti-human IgG Fc fluorescent secondary antibody dilution (1:400) was added to the cell plate at 100 μL/well, and the plate was incubated at 4° C. for 1 h and then washed. PBS was added to the cell plate at 100 μL/well before plate reading.
(§4) Experiment 3: The binding activity of bispecific antibodies was measured using the method of experiment 1.

Test [6] shares this target. The test is described as follows: flow cytometry, Cho-hPSMA; antibody at 4 nM. As for the experimental part: as §3, §4
For test [7] the target is unchanged. The test is described as follows: flow cytometry, Cho-hPSMA; antibody at 0.8 nM. As for the experimental part: as §3, §4
Test [8] has the same target. The test is described as follows: flow cytometry, Cho-hPSMA; antibody at 20 nM. As for the experimental part: as §3, §4
For test [9] the target is unchanged. The test is described as follows: flow cytometry, Cho-hPSMA; antibody at 20 µg/mL.
The target is the same in test [10]. The test is described as follows: flow cytometry, Cho-hPSMA; antibody at 100 µg/mL.
The target is the same in test [11]. The test is described as follows: flow cytometry, Cho-hPSMA; antibody at 4 µg/mL.
For test [12], the target named is T2, human PSMA antigen (Acro, Cat. No. PSA-H52H3; Lys44-Ala750) (human, UniProt Q04609 44-750).
T2 construct: range 44-750
T2 sequence (Q04609 44-750 limits assumed): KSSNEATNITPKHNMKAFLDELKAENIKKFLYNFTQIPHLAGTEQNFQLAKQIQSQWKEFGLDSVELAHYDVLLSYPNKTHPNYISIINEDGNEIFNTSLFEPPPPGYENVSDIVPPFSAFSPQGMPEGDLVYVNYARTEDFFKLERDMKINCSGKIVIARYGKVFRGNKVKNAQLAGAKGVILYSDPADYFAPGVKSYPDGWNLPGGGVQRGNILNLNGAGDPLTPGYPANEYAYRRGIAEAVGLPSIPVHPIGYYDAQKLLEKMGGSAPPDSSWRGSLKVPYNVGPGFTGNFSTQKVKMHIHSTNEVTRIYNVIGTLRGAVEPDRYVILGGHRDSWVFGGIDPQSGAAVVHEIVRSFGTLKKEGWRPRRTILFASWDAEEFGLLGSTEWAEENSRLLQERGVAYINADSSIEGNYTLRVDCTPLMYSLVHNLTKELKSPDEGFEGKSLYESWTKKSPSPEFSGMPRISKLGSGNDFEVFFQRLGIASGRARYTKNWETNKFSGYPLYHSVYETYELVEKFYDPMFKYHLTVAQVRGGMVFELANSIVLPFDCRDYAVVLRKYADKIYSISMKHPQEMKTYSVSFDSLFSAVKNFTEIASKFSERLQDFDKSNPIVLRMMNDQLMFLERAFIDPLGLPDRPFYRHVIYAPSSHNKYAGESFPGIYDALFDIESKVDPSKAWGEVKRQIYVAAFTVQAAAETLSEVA
The test is described as follows: SPR (Biacore T200, 25 C), antibody captured on Protein A, 1:1 model. The protocol: Experiment 5: Antibodies were affinity-captured using a Protein A biosensor chip, and human PSMA was then allowed to flow over the chip surface. The association and dissociation curves were obtained by real-time detection of reaction signals using a Biacore T200 instrument at 25° C. After the dissociation in each experimental cycle was complete, the biosensor chip was regenerated by washing with Glycine 1.5. Data fitting was performed using a 1:1 Model. The human PSMA antigen was purchased from Acro (Cat. No. PSA-H52H3; Lys44-Ala750), and the hCD3D&CD3E complex antigen was purchased from Sino Biological (Cat. No. CT038-H2508H).

Test [13] has as its target T1, human PSMA on cells (Cho-hPSMA, CHO-K1 …). The test is described as follows: flow cytometry, Cho-hPSMA; antibody at 0.8 µg/mL.

T1 sequence (Q04609 whole entry): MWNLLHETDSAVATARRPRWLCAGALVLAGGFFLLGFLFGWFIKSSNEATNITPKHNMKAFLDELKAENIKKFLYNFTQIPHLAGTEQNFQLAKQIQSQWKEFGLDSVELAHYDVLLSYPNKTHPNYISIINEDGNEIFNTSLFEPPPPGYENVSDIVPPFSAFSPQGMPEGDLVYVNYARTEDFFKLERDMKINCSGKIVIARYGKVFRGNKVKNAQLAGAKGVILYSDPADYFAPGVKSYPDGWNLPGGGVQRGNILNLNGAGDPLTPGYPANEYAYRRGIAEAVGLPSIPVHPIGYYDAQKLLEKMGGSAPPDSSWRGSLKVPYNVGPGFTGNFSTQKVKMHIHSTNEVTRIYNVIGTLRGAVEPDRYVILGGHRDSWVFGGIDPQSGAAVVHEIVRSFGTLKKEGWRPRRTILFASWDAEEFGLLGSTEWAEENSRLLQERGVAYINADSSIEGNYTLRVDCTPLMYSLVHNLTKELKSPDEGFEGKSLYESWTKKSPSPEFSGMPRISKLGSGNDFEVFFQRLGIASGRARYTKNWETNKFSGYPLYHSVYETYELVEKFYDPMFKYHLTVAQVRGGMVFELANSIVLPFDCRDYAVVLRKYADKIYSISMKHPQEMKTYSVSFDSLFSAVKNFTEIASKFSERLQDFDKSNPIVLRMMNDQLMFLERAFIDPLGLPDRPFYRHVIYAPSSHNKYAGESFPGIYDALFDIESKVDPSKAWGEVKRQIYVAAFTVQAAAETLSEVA

B1: 43-F4 (bispecific antibody)
heavy: not shown
light: DIQMTQSPSSLSASVGDRVTITCKASQNVHTSVAWYQQKPGKSPKLLIYSASNRYSGVPSRFSGSGSGTDFTLTISSLQPEDVATYYCQQYSSYPLTFGQGTKLEIKRTVAAPSVFIFPPSDEQLKSGTASVVCLLNNFYPREAKVQWKVDNALQSGNSQESVTEQDSKDSTYSLSSTLTLSKADYEKHKVYACEVTHQGLSSPVTKSFNRGEC
notes: PSMA x CD3, Format 4
With B1, the “cytotoxic activity against Lncap, EC50” value in [1] amounted to 6.21 pM. For the same molecule, the “cytotoxic activity against Lncap, Maximum lysis rate %” value in test [1] came out at 48%. The results for the absorbance in test [2], in test [3] and in [4] were 1.04 OD450, 0.254 OD450 and 0.527 OD450, respectively.

B2: 15-F4 (bispecific antibody)
heavy: not shown
light: DIQMTQSPSSLSASVGDRVTITCKASQGVDTAVAWYQQKPGKSPKLLIYWASTRHTGVPDRFSGSGSGTDFTLTISSLQPEDVATYYCQQYSRYPLTFGQGTKLEIKRTVAAPSVFIFPPSDEQLKSGTASVVCLLNNFYPREAKVQWKVDNALQSGNSQESVTEQDSKDSTYSLSSTLTLSKADYEKHKVYACEVTHQGLSSPVTKSFNRGEC
notes: PSMA x CD3, Format 4
For the molecule B2, the “cytotoxic activity against Lncap, EC50” value in test [1] was found to be 9.63 pM. In [1], the “cytotoxic activity against Lncap, Maximum lysis rate %” value was 63.2%. The fluorescence intensity in test [5] was 32200; in test [6] it was 22000; in [7], 8280; in [8] it was 31400.

B3: 43-F3 (bispecific antibody)
heavy: not shown
light 1: DIQMTQSPSSLSASVGDRVTITCKASQNVHTSVAWYQQKPGKSPKLLIYSASNRYSGVPSRFSGSGSGTDFTLTISSLQPEDVATYYCQQYSSYPLTFGQGTKLEIKRTVAAPSVFIFPPSDEQLKSGTASVVCLLNNFYPREAKVQWKVDNALQSGNSQESVTEQDSKDSTYSLSSTLTLSKADYEKHKVYACEVTHQGLSSPVTKSFNRGEC
light 2: not shown
notes: PSMA x CD3, Format 3
As to B3, in test [1], the “cytotoxic activity against Lncap, EC50” value is 7.39 pM. Moreover, the “cytotoxic activity against Lncap, Maximum lysis rate %” value in test [1] is 49.5%. Moreover, the results for the absorbance in test [2], in test [3] and in [4] were 0.721 OD450, 0.227 OD450 and 0.441 OD450, respectively.

B4: 31-F1 (bispecific antibody)
heavy 1: not shown
light 1: DIQMTQSPSSLSASVGDRVTITCRASGNIHNYLAWYQQKPGKAPKLLIYNAETLADGVPSRFSGSGSGTDFTLTISSLQPEDFATYYCQHFWSTPPTFGGGTKVEIKRTVAAPSVFIFPPSDEQLKSGTASVVCLLNNFYPREAKVQWKVDNALQSGNSQESVTEQDSKDSTYSLSSTLTLSKADYEKHKVYACEVTHQGLSSPVTKSFNRGEC
heavy 2: not shown
light 2: not shown
notes: PSMA x CD3, Format 1
Consider B4, for which the fluorescence intensity in [9] amounted to 16200; in test [10], 16500; in [11], 7970; in test [13] it was 2520. For the same molecule, in test [12], the affinity, expressed as Kd, was 1860 pM. The molecule further came in with a dissociation rate constant (koff) in [12] of 1.84e-05 s⁻¹. Also, the kon in test [12] is 9890 M⁻¹ s⁻¹.

B5: 27-F4 (bispecific antibody)
heavy: not shown
light: QIVLTQSPDFQSVTPKEKVTIQCSASSSVSYMYWYQQKPDQSPKPWIYRTSNLASGVPSRFSGSGSGTDYTLTINSLEAEDAATYYCQQYHSYPLTFGQGTKLEIKRTVAAPSVFIFPPSDEQLKSGTASVVCLLNNFYPREAKVQWKVDNALQSGNSQESVTEQDSKDSTYSLSSTLTLSKADYEKHKVYACEVTHQGLSSPVTKSFNRGEC
notes: PSMA x CD3, Format 4
As to B5, the absorbance in [2] stood at 1.05 OD450; in test [3] it was 0.419 OD450; in test [4], 0.732 OD450.

B6: 46-F4 (bispecific antibody)
heavy: not shown
light: DIQMTQSPSSLSASVGDRVTITCKASQSVGTAVAWYQQKPGKAPKLLIYSASSRYTGVPSRFSGSGSGTDFTLTISSLQPEDFADYFCHQYSSYPLTFGGGTKVEIKRTVAAPSVFIFPPSDEQLKSGTASVVCLLNNFYPREAKVQWKVDNALQSGNSQESVTEQDSKDSTYSLSSTLTLSKADYEKHKVYACEVTHQGLSSPVTKSFNRGEC
notes: PSMA x CD3, Format 4
On to B6, for which the “cytotoxic activity against Lncap, EC50” value in test [1] came out at 2.85 pM. Moreover, in test [1], the “cytotoxic activity against Lncap, Maximum lysis rate %” value was 63.5%. For the same molecule, the fluorescence intensity in test [5] was 21300; in test [6] it was 18700; in test [7], 9490; in [8] it was 20800.

B7: 46-F2 (bispecific antibody)
heavy 1: not shown
light 1: DIQMTQSPSSLSASVGDRVTITCKASQSVGTAVAWYQQKPGKAPKLLIYSASSRYTGVPSRFSGSGSGTDFTLTISSLQPEDFADYFCHQYSSYPLTFGGGTKVEIKRTVAAPSVFIFPPSDEQLKSGTASVVCLLNNFYPREAKVQWKVDNALQSGNSQESVTEQDSKDSTYSLSSTLTLSKADYEKHKVYACEVTHQGLSSPVTKSFNRGEC
heavy 2: not shown
light 2: not shown
notes: PSMA x CD3, Format 2
B7: the fluorescence intensity was found to be 23000 in test [5], 19400 in [6], 8330 in test [7] and 23100 in test [8].

B8: 46-F1 (bispecific antibody)
heavy 1: not shown
light 1: DIQMTQSPSSLSASVGDRVTITCKASQSVGTAVAWYQQKPGKAPKLLIYSASSRYTGVPSRFSGSGSGTDFTLTISSLQPEDFADYFCHQYSSYPLTFGGGTKVEIKRTVAAPSVFIFPPSDEQLKSGTASVVCLLNNFYPREAKVQWKVDNALQSGNSQESVTEQDSKDSTYSLSSTLTLSKADYEKHKVYACEVTHQGLSSPVTKSFNRGEC
heavy 2: not shown
light 2: not shown
notes: PSMA x CD3, Format 1
On to B8, for which the fluorescence intensity was determined as 31600 in test [5], 12300 in [6], 3930 in test [7] and 28600 in [8].
